Experiments:
Test in all cases: ELISA, plate coated with a dilution series of the recombinant TNFRSF protein [panel B]
[1] = biological target: T1, Recombinant human TNFRSF16 (NGFR) (human, UniProt P08138 29-250)
T1 construct: Plate-adsorbed antigen of the ELISA
T1 sequence (looked up): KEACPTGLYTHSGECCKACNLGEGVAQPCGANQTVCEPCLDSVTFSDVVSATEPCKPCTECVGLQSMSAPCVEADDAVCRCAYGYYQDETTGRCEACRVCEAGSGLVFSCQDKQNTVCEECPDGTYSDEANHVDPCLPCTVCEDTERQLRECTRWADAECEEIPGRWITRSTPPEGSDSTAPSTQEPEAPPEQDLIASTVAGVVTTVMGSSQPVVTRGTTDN
Procedure: (§1) An eight point, two-fold dilution series of each recombinant human TNFRSF protein was prepared after dilution of stock proteins to 5 μg/mL in PBS. Subsequently, 50 μL of each antigen dilution was transferred in duplicate to wells of a Nunc 96-well MaxiSorp flat bottom plate, and incubated overnight at 4° C. to adsorb proteins to the plate. Afterwards, plates were washed three times with PBS in a BioTek® plate washer to remove unbound protein. Anti OX40 mAb29, 9B12, and control antibodies were diluted in PBS to a final concentration of 10 μg/mL, and 50 μL of mAb were added to each well and incubated at room temperature for one hour to bind mAb to plate-bound protein. Thereafter, wells were washed with PBS/Tween-20 0.1% (volume/volume) using a BioTek® plate washer. HRP conjugated goat anti-human or goat anti-mouse secondary antibodies at 10 μg/mL was added to each well and incubated at room temperature for 1 hour. After three washes in PBS/Tween-20 0.1%, 50 μL of TMB substrate was added to each well and incubated at room temperature for 5 minutes to develop the colorimetric product. Reactions were stopped by adding 50 μL of 0.5 molar H₂SO₄ to wells, and plates read immediately at 450 nm using an Envision C plate reader for detection of the colorimetric product.

[2] = biological target: T2, Recombinant human TNFRSF1β (TNFRII) (human, UniProt P20333 23-257)
T2 construct: Plate-adsorbed antigen of the ELISA; also called TNFR2; TNFRSF1B
T2 sequence (looked up): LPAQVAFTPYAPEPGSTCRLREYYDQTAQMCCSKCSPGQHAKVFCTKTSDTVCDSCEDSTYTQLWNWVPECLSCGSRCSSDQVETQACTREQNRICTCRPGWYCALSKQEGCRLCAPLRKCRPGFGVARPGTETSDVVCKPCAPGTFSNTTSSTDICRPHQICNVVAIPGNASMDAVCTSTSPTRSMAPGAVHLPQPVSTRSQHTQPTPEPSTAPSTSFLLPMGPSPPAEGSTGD
Procedure: as §1

[3] = biological target: T3, Recombinant human TNFRSF18 (GITR) (human, UniProt Q9Y5U5 26-162, limits assumed)
T3 construct: Plate-adsorbed antigen of the ELISA
T3 sequence (looked up): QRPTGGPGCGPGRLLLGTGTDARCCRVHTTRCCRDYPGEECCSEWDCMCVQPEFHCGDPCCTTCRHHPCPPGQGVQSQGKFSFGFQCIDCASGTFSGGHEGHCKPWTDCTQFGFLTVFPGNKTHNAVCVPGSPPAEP
Procedure: as §1

[4] = biological target: T4, Recombinant human TNFRSF9 (CD137) (human, UniProt Q07011 24-186, limits assumed)
T4 construct: Plate-adsorbed antigen of the ELISA
Procedure: as §1

[5] = biological target: T5, Recombinant human TNFRSF21 (DR6) (human, UniProt O75509 42-349, limits assumed)
T5 construct: Plate-adsorbed antigen of the ELISA
T5 sequence (looked up): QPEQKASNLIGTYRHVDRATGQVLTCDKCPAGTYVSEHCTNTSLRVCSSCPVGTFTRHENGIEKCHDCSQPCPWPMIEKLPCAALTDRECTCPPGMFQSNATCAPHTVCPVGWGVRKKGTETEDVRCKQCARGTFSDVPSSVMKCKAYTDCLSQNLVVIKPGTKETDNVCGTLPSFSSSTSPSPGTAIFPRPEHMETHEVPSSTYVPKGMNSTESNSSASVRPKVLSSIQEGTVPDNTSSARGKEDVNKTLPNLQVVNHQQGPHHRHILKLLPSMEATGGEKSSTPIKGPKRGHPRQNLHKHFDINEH
Procedure: as §1

[6] = biological target: T6, Recombinant human TNFRSF11B (OPG) (human, UniProt O00300 22-401, limits assumed)
T6 construct: Plate-adsorbed antigen of the ELISA; also called osteoprotegerin
T6 sequence (looked up): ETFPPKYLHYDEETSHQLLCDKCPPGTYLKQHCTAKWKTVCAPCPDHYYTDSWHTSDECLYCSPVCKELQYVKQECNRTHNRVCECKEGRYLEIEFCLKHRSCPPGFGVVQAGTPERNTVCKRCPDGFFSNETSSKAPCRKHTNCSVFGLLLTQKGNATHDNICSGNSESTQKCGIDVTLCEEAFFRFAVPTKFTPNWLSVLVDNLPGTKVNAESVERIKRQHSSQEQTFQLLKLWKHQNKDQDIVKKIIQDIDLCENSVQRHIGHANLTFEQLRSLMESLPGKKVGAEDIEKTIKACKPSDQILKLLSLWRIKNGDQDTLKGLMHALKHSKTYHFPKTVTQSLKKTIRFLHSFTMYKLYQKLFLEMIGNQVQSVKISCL
Procedure: as §1

Measured: binding result

B1: 9B12 (antibody, mouse IgG1, V domains shown)
VH: EVQLQESGPSLVKPSQTLSLTCSVTGDSFTSGYWNWIRKFPGNRLEYMGYISYNGITYHNPSLKSRISITRDTSKNHYYLQLNSVTTEDTATYFCARYRYDYDGGHAMDYWGQGTLVTVSS
VL: DIQMTQTTSSLSASLGDRVTISCRASQDISNYLNWYQQKPDGTVKLLIYYTSKLHSGVPSRFSGSGSRTDYSLTITDLDQEDIATYFCQQGSALPWTFGQGTKVEIKR
notes: mouse IgG1 kappa; also called murine mAb 9B12; mouse anti-human OX40 IgG1κ monoclonal antibody
no binding: all assays above

— patent US20160137740A1 (AstraZeneca / MedImmune, published 2016)
